Measurements published in US10501502B2, “Allophycocyanin alpha-subunit evolved labeling proteins (smURFPs)” (The Regents of the University of California, priority 2016, dated 2019).

B1: smURFP: small ultra-red fluorescent protein, SEQ ID NO: 13, homodimer, covalently attaches biliverdin (protein)
chain: MKTSEQRVNIATLLTENKKKIVDKASQDLWRRHPDLIAPGGIAFSQRDRALCLRDYGWFLHLITFCLLAGDKGPIESIGLISIREMYNSLGVPVPAMMESIRCLKEASLSLLDEEDANETAPYFDYIIKAMS
modifications: homodimer; biliverdin chromophore; smRUFP Variant Polypeptide
B2: smURFP + BVMe2: smURFP with a single biliverdin dimethyl ester chromophore (protein)
chain: B1 chain
modifications: left off: small tags and cut ends
notes: smURFP with a single biliverdin dimethyl ester chromophore

How the values were obtained:
[1] = Native PAGE quaternary structure / stoichiometry; assay type: physicochemical; conditions: for stoichiometry: Table 5
Experimental: Native PAGE was run using NativePAGE Novex Bis-Tris Gel System (Life Technologies) on Native PAGE 4-16% Bis-Tris protein gels (Life Technologies). SDS-denaturing PAGE was run using NuPAGE MOPS SDS running buffer (Life Technologies) and NuPAGE Novex 4-12% Bis-Tris gels (Life Technologies). Precision Plus Protein Dual Color Standards (Bio-Rad) were used as an MW ladder. Zinc blot was performed after running the SDS-PAGE gel using the described method^44. Fluorescence was imaged using a BioSpectrum AC Imaging System (UVP) with EX/EM=535(45)/605(70) nm for tdTomato, EX/EM=650(13)/690(50) nm for smURFP and TDsmURFP, EX/EM=685(40)/710LP nm for IFP1.4 and BV+zinc.

[2] = tested on: HEK293A cells; test: Fluorescence imaging of FPs in HEK293A cells with chromophore addition or HO-1 expression; assay type: cell-based
Excerpt: smURFP codons were optimized for human cell expression, and the gene was created by GenScript. smURFP, TDsmURFP (created from mammalian-optimized smURFP), IFP1.4 (mammalian-optimized form^35), IFP2.0 (mammalian-optimized form^46), and iRFP713 (mammalian-optimized form^36) were PCR amplified using Phusion High-Fidelity DNA Polymerase (NEB) with primers containing 5′ HindIII and 3′ XhoI restriction enzyme sites. HindIII-HF and XhoI (NEB)-digested PCR fragments were gel purified (Zymoclean Gel DNA Recovery Kit) and were ligated (T4 DNA Ligase, Life Technologies) into a similarly digested pCDNA3-IRES-eGFP vector (bicistronic to express two FPs in the same cell). For creation of HO-1-expressing mammalian vec-tors, the Synechocystis HO-1 was used, and the codons were not optimized for mammalian expression. Synechocystis HO-1 was directly amplified from the pBAD vector using primers containing 5′ BsiWI and 3′ XbaI restriction enzyme sites. pCDNA3 smURFP, TDsmURFP, IFP1.4, IFP2.0, or iRFP713-IRES-eGFP vectors were digested with BsiWI and XbaI (NEB), dephosphorylated (SAP, Roche), gel purified (Zymoclean Gel DNA Recovery Kit), and ligated (T4 DNA Ligase, Life Technologies) with similarly digested, purified HO-1 PCR fragment. For creation of smURFP fusions, smURFP was PCR amplified using Phusion High-Fidelity DNA Polymerase (NEB) with primers containing 5′ AgeI and 3′ NotI restriction enzyme sites for N-terminal fusions or with primers containing 5′ AgeI and 3′ BspEI restriction enzyme sites for C-terminal fusions. mGeos2-VEL-ManII-N-10 (Addgene 57551) and Dronpa-PDHA1-N-10 (Addgene 57292) vectors were digested with AgeI and NotI (NEB) and mCherry-αTubulin-C-18 (Addgene 55148) and tdTomato-LaminB1-10 (Addgene 58107) were digested with AgeI and BspEI, dephosphorylated (SAP, Roche), gel purified (Zymoclean Gel DNA Recovery Kit), and ligated (T4 DNA Ligase, Life Technologies) with similarly digested, purified smURFP PCR fragment. HEK293A (Invitrogen, Life Technologies), HT1080 (ATCC), and PC3 (ATCC) cells were grown in Dulbecco's Modified Eagle's medium (DMEM, Corning), supplemented with 10% FBS (Atlanta Biologicals)+1×penicillin—streptomycin (Fisher Scientific), which is referred to as growth media, on poly-D-lysine-coated glass-bottom culture dishes (MatTek, No. P35G-0-14-C). The HEK cell line is listed in the ICLAC and NCBI biosample databases and is commonly misidentified as the HeLa cell line. For expression of exogenous fluorescent proteins, there is no problem if there is a contaminating cell line because no endogenous biology or therapeutic results are being determined. HEK293A cells were purchased from Invitrogen (Life Technologies), and all experiments are derived from the same expanded frozen stock without cell line authentication or mycoplasma detection. Cells were transfected using 2 μg of circular DNA+5 μl Lipofectamine 2000 (Life Technologies) in 2 ml Opti-MEM (Life Technologies) for 4-5 h, transfection media was discarded, and prewarmed growth media was added. Chromophores (5 mM in DMSO) were added at indicated concentrations to growth media, warmed for 10-15 min at 37° C., and added to cells. For multiple timepoints, incubations were staggered to maintain equivalent incubation. Prior to imaging, cells were washed 1×2 ml growth media, 2×2 ml imaging solution, and imaged in 2 ml imaging solution. Fluorescence imaging was performed on a Zeiss Axiovert 200M inverted microscope controlled by SlideBook software. FPs were imaged with the following settings: eGFP, EX/EM=495(10)/535(25) nm, tdTomato EX/EM=540(25)/595(50) nm; mCherry and mCardinal, EX/EM=580(20)/653(95) nm; smURFP and TDsmURFP, EX/EX=628(40)/680(30) nm; and IFP1.4, IFP2.0, and iRFP713, EX/EM=665(45)/725(50) nm. […]

| Molecule | quaternary structure on native gel [1] | stoichiometry [1] | brightness in cell culture compared with other FPs [2] | fold increase in fluorescence with HO-1+5-ALA+FeSO4 ([2]; HEK293A cells) [fold] | fold increase in fluorescence with expression of HO-1 ([2]; HEK293A cells) [fold] | fold increase in fluorescence with 25 μM BV ([2]; HEK293A cells, 3 h) [fold] | fold increase in fluorescence with 25 μM BVMe2 relative to 25 μM BV ([2]; HEK293A cells, 3 h) [fold] | fold increase in fluorescence with 25 μM PCB relative to 25 μM BV ([2]; HEK293A cells, 3 h) [fold] | fluorescence relative to eGFP expressed from IRES ([2]; HEK293A cells, in the presence of BVMe2) | fold brighter than IFP2.0 or iRFP713 ([2]; HEK293A cells) [fold] | fold increase in fluorescence relative to smURFP ([2]; HEK293A cells, chromophore incubation 3 h) [fold] |
| --- | --- | --- | --- | --- | --- | --- | --- | --- | --- | --- | --- |
| B1 | homodimer | Dimer | comparable brightness to eGFP and is brighter than mCherry, mCardinal, IFP1.4, IFP2.0, and iRFP713 | 7.7 | 2.8 | 4.7 | 18 | 10 | five-fold greater fluorescence | – | – |
| B2 | – | Dimer | – | – | – | – | – | – | – | 7 | > 32 |
